Experimental data from patent US8187596 (SCHERING, dated 2012).

B1: recombinant his6-tagged murine IL-1RAcP (receptor, UniProt Q61730 21-367, looked up)
chain: SERCDDWGLDTMRQIQVFEDEPARIKCPLFEHFLKYNYSTAHSSGLTLIWYWTRQDRDLEEPINFRLPENRISKEKDVLWFRPTLLNDTGNYTCMLRNTTYCSKVAFPLEVVQKDSCFNSAMRFPVHKMYIEHGIHKITCPNVDGYFPSSVKPSVTWYKGCTEIVDFHNVLPEGMNLSFFIPLVSNNGNYTCVVTYPENGRLFHLTRTVTVKVVGSPKDALPPQIYSPNDRVVYEKEPGEELVIPCKVYFSFIMDSHNEVWWTIDGKKPDDVTVDITINESVSYSSTEDETRTQILSIKKVTPEDLRRNYVCHARNTKGEAEQAAKVKQKVIPPRYTVELACGFGAT
notes: Described only as soluble, recombinant and his6-tagged; also called soluble his6-tagged murine IL-1RAcP; his6-tagged IL-1RAcP; not shown: his6 tag
B2: murine IL-1β (ligand, UniProt P10749 118-269, looked up)
chain: VPIRQLHYRLRDEQQKSLVLSDPYELKALHLNGQNINQQVIFSMSFVQGEPSNDKIPVALGLKGKNLYLSCVMKDGTPTLQLESVDPKQYPKKKMEKRFVFNKIEVKSKVEFESAEFPNWYISTSQAEHKPVFLGNNSGQDIIDFTMESVSS
notes: also called mouse IL-1β
B3: murine IL-33 (ligand, UniProt Q8BVZ5 109-266, looked up)
chain: SIQGTSLLTQSPASLSTYNDQSVSFVLENGCYVINVDDSGKDQEQDQVLLRYYESPCPASQSGDGVDGKKLMVNMSPIKDTDIWLHANDKDYSVELQRGDVSPPEQAFFVLHKKSSDFVSFECKNLPGTYIGVKDNQLALVEEKDESCNNIMFKLSKI
notes: also called mouse IL-33

Experiments:
[1] = target: T1, complex of plate-bound murine IL-1R1-Fc and murine IL-1β (murine, UniProt P13504 20-338; P10749 118-269, limits assumed); test: receptor-ligand complex ELISA: IL-1R1-Fc coated, his6-IL-1RAcP 3 ug/ml in solution, IL-1β titrated, anti-his6-peroxidase detection
T1 construct: Formed in the ELISA well from coated IL-1R1-Fc and titrated IL-1β; It is the partner that captures his6-IL-1RAcP; also called IL-1/IL-1R1 complex; not shown: Fc part of the bought fusion protein
T1 sequence (looked up) 1: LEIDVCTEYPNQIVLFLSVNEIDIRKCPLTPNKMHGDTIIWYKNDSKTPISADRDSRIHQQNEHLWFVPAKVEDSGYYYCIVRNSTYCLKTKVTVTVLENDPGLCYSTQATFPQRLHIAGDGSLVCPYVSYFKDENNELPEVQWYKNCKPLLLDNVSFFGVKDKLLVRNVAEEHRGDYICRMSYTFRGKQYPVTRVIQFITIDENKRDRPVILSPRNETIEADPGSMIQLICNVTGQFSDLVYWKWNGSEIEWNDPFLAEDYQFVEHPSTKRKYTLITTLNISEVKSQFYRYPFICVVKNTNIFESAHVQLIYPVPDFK
T1 sequence (looked up) 2: B2 chain
Description: (§1) Murine IL-1β or IL-33 was titrated into plates containing soluble his6-tagged murine IL-1RAcP and plate-bound ST2-Fc (FIG. 8A) or IL-1R1-Fc (FIG. 8B). Peroxidase-conjugated anti-his6 was used as a detection antibody. Data is representative of 2 experiments. Data represent the mean+/-SEM of duplicate wells.
(§2) Receptor-ligand complex ELISA: 3 µg/mlmurine ST2-Fc or IL-1R1-Fc fusion proteins (R&D Systems) in PBS were coated overnight onto MaxiSorp plates (Nunc). After washing, plates were incubated with 3 µg/ml recombinant his6-tagged murine IL-1RAcP and increasing concentrations of murine IL-33 or IL-1β in PBS/1% bovine serum albumin/ 0.05% Tween-20® polyoxyethylene sorbitan monolaurate for 1.5 hours. Plates were washed and incubated with anti-his6-peroxidase (Roche Diagnostics) for 1 hour, washed again, developed with TMB Peroxidase substrate (KPL), stopped with […], and read on a plate reader at 450-570 nm.

[2] = target: T2, murine IL-1R1-Fc fusion protein (R&D Systems) (murine, UniProt P13504 20-338, limits assumed); test: receptor-ligand complex ELISA: IL-1β titrated onto coated IL-1R1-Fc with his6-IL-1RAcP present; the readout is captured his6-IL-1RAcP (ternary complex)
T2 construct: Bought reagent (R&D Systems), coated on the plate at 3 ug/ml; not shown: Fc part of the bought fusion protein
T2 sequence (looked up): T1 sequence (looked up) 1
Description: as §1, §2

[3] = target: B1; test: not described (data not shown)

B1
binding result [1]: binds

B2
binding result [2]: binds

B3
binding result [3]: no binding
